Measured values: the supplement of paper PMC10899765

Tests used:
Settings in all cases: 20 nM; 72 h
MCF10A [1] = test: percent viability (nuclei count relative to siNT); higher = more viable cells
Description: (§1)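 After 72 h, cells were fixed and stained with Hoechst and anti-fibrillarin, and nucleoli per nucleus were counted with CellProfiler. Values are plate-adjusted percent effect for the one-nucleolus and 5+ nucleoli phenotypes, normalised to siNT (0%) and to the positive controls siNOL11 or siKIF11 (100%), as the mean of biological triplicates. Percent viability is the nuclei count relative to siNT.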

MCF10A [2] = test: 5+ nucleoli phenotype percent effect (relative to siNT 0% and siKIF11 100%); higher = more cells with five or more nucleoli
Description: as §1

MCF10A [3] = test: one-nucleolus phenotype percent effect (relative to siNT 0% and siNOL11 100%); higher = more cells with one nucleolus (ribosome biogenesis inhibition)
Description: as §1

| Sequence | percent viability (MCF10A [1]) [%] | 5+ nucleoli phenotype percent effect (MCF10A [2]) [%] | one-nucleolus phenotype percent effect (MCF10A [3]) [%] |
| --- | --- | --- | --- |
| CUUUGAGCACAUGAGCAGACGGA [hsa-miR-8055] | 92.5 | -14.2 | -6.93 |
| AAACUACUGAAAAUCAAAGAU [hsa-miR-606] | 133 | 18.1 | -12.6 |
| UCGCGCCCCGGCUCCCGUUC [hsa-miR-1292-3p] | 64.3 | 9.03 | -6.7 |
| AAUGGCGCCACUAGGGUUGUG [hsa-miR-652-3p] | 58.1 | 4.15 | 7.39 |
| ACCCCCGGGCAAAGACCUGCAGAU [hsa-miR-6840-5p] | 92 | -18.8 | 5.12 |
| CAAAAAUCUCAAUUACUUUUGC [hsa-miR-548c-3p] | 84.4 | 42.3 | -9.26 |
| AUUGGACUGCUGAUGGCCCGU [hsa-miR-4529-3p] | 48.3 | -12.1 | 19.5 |
| ACAUUGCCAGGGAGUUU [hsa-miR-4317] | 45.1 | -11 | -2.43 |
| CCAGACUGUGGCUGACCAGAGG [hsa-miR-4494] | 96.4 | 52.3 | -29.5 |
| AUCUGGAGGUAAGAAGCACUUU [hsa-miR-516b-5p] | 61.6 | 48.7 | -1.83 |
| UGAGAAGGCACAGCUUGCACGUGA [hsa-miR-6770-5p] | 36.9 | -3.61 | 34.3 |
| UGGACCUCUCCUCCCCAG [hsa-miR-6861-3p] | 40.5 | 7.71 | 2.35 |
| AGCCCGCCCCAGCCGAGGUUCU [hsa-miR-4707-3p] | 42.9 | -25.2 | 19.7 |
| AGAGGACCCGUAGCUGCUAGAAGG [hsa-miR-4751] | 106 | 41.7 | -23.3 |
| UGCGCCUCGGGUGAGCAUG [hsa-miR-668-5p] | 43.2 | 37.3 | -14.2 |
| AGCGAGGUUGCCCUUUGUAUAU [hsa-miR-381-5p] | 52.5 | 0.715 | -12.7 |
| UUCAUUCGGCUGUCCAGAUGUA [hsa-miR-1298] | 130 | 33.4 | -24.3 |
| UGGGGGGACAGAUGGAGAGGACA [hsa-miR-6887-5p] | 22.6 | -8.17 | 22.8 |
| AGCAGUGUUUGUUUUGCCCACA [hsa-miR-6499-3p] | 30.3 | -48 | 16.7 |
| UCAAAACUGAGGGGCAUUUUCU [hsa-miR-1323] | 55.9 | 27.8 | -19.4 |
